Experimental findings from US20220289850 (published 2022) are described below.

The target of one assay is T1, human integrin avb6 (human, UniProt P06756).
T1 chain 1: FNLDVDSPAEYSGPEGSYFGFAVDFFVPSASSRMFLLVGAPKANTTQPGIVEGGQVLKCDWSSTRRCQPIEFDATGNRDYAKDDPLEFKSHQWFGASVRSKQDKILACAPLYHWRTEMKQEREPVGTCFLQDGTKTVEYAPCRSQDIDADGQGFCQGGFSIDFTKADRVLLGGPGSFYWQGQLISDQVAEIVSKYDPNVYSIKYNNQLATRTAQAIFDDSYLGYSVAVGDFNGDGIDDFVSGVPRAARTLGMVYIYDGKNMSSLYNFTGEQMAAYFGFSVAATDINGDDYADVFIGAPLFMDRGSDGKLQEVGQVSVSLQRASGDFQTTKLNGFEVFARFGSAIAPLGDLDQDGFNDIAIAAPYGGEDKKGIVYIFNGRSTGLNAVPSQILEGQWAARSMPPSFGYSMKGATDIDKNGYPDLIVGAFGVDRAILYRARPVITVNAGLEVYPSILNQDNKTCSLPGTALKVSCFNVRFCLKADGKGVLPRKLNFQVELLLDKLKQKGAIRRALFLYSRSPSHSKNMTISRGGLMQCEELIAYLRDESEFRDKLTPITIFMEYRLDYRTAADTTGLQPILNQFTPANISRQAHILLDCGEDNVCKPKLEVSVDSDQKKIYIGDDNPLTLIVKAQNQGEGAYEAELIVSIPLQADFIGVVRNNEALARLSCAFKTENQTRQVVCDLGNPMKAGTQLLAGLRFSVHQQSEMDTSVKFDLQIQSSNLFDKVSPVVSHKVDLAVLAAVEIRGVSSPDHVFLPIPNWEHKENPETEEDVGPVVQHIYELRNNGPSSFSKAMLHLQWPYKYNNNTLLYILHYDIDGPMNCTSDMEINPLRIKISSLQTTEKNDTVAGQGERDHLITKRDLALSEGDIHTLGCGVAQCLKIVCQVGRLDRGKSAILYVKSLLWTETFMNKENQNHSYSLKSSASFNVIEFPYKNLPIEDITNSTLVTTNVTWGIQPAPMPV
T1 chain 2: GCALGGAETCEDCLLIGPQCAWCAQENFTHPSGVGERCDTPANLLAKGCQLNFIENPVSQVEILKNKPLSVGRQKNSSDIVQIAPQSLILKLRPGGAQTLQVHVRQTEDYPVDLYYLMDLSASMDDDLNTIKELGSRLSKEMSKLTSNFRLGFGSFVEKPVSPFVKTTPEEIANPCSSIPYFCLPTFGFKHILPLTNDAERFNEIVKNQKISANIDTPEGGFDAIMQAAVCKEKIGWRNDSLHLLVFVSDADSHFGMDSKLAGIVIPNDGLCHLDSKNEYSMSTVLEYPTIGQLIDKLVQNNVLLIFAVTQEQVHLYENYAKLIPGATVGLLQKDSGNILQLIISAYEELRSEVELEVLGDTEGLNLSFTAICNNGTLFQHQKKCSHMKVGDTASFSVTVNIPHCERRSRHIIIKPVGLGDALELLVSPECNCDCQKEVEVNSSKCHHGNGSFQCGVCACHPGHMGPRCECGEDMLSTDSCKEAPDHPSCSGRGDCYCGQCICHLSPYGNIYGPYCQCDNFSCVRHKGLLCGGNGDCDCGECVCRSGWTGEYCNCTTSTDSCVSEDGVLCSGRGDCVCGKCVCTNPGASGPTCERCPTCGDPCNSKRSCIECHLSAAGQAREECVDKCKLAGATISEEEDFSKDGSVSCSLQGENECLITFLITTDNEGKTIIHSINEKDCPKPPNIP
The assay is described as follows: SPR.

The target in the next assay is T2, human integrin avb3 (human, UniProt P06756).
T2 chain 1: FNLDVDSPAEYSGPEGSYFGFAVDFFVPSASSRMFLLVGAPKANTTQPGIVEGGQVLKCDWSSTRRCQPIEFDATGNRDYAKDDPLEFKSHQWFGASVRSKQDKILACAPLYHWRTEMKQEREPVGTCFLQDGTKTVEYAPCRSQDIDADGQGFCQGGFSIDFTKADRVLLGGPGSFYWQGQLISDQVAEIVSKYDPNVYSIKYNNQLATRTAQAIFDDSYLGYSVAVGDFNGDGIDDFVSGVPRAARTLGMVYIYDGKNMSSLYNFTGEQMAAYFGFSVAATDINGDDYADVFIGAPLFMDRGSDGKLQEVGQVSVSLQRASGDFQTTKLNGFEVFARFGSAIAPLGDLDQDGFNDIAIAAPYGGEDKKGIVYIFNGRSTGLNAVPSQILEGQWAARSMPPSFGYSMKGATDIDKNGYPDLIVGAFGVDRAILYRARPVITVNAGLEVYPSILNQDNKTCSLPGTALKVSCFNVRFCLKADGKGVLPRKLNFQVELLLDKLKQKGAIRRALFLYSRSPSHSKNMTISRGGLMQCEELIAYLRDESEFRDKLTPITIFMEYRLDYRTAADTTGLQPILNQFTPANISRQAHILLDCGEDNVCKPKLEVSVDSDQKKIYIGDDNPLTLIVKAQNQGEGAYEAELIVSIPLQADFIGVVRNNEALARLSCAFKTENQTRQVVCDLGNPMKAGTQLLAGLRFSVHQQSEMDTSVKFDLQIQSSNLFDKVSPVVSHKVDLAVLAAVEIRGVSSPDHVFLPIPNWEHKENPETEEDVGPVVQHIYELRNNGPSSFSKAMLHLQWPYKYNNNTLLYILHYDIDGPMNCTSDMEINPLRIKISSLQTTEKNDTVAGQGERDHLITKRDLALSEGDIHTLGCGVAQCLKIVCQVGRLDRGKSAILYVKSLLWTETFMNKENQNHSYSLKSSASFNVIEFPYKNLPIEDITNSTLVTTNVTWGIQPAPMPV
T2 chain 2: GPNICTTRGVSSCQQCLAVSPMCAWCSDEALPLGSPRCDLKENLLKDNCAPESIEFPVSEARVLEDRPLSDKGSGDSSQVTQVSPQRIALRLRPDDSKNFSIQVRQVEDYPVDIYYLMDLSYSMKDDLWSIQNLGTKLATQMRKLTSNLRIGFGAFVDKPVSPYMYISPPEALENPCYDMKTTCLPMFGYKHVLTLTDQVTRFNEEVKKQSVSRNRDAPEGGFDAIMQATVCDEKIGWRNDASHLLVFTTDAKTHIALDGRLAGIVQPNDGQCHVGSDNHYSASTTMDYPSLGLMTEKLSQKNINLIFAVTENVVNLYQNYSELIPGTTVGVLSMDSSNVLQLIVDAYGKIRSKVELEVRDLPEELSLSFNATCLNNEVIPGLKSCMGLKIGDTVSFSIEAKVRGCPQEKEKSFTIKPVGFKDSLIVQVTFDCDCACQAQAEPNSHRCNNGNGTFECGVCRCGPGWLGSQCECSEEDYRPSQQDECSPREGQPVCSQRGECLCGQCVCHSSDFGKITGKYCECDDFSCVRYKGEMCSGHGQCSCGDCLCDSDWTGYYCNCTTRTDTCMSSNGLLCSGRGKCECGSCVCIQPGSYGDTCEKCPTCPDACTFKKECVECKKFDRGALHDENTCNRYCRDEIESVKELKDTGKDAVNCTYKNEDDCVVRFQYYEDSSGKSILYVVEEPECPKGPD
Description: SPR. In general terms: Surface plasmon resonance follows binding to a sensor surface in real time, without labels.

B1: ADWA11 2.4 IgG (antibody)
chain 1: EVQLVESGGGLVQPGGSLRLSCAASGFNIKDYYMNWVRQAPGKGLEWVGWIDPDQGNTIYEPKFQGRFTISADTSKNSAYLQMNSLRAEDTAVYYCARRLLMDYWGQGTLVTVSSASTKGPSVFPLAPSSKSTSGGTAALGCLVKDYFPEPVTVSWNSGALTSGVHTFPAVLQSSGLYSLSSVVTVPSSSLGTQTYICNVNHKPSNTKVDKKVEPKSCDKTHTCPPCPAPEAAGAPSVFLFPPKPKDTLMISRTPEVTCVVVDVSHEDPEVKFNWYVDGVEVHNAKTKPREEQYNSTYRVVSVLTVLHQDWLNGKEYKCKVSNKALPAPIEKTISKAKGQPREPQVYTLPPSREEMTKNQVSLTCLVKGFYPSDIAVEWESNGQPENNYKTTPPVLDSDGSFFLYSKLTVDKSRWQQGNVFSCSVMHEALHNHYTQKSLSLSPGK
chain 2: DIQMTQSPSSLSASVGDRVTITCRSTKSLSHFNGNTYLFWYQQKPGKAPKRLIYYMSSLASGVPSRFSGSGSGTDFTLTISSLQPEDFATYYCQQSLEYPFTFGGGTKVEIKRTVAAPSVFIFPPSDEQLKSGTASVVCLLNNFYPREAKVQWKVDNALQSGNSQESVTEQDSKDSTYSLSSTLTLSKADYEKHKVYACEVTHQGLSSPVTKSFNRGEC
On to B1, for which the binding result with human integrin avb6 and with human integrin avb3 was “no binding” throughout.
